Consider four proteins from PMC7517009, “Variants of the human RAD52 gene confer defects in ionizing radiation resistance and homologous recombination repair in budding yeast” (Microbial Cell, 2020).

Series [1] deals with the molecule itself. Briefly: two-hybrid; Gal4 DNA-binding domain (pGBT9) and Gal4 transcription activation domain (pGAD424) fusions in yeast strain Y187; beta-galactosidase specific activity in cell extracts, Miller units.
Series [2] concerns the molecule itself. Briefly: SEC; Superdex 200 in 10 mM Tris HCl, 300 mM NaCl, 2 mM BME, pH 8.0, 0.5 mL/min; size of the multimer estimated from the elution volume.

Residue numbers refer to the chain shown, from its start. Names may count otherwise. “And” between values parts separate entries of the source, which are not always exact repeats. Equal values may be shown once.

B1: HsRAD52 (human RAD52), wild type, Gal4 fusion proteins (natural protein, UniProt P43351 1-418, looked up)
chain: MSGTEEAILGGRDSHPAAGGGSVLCFGQCQYTAEEYQAIQKALRQRLGPEYISSRMAGGGQKVCYIEGHRVINLANEMFGYNGWAHSITQQNVDFVDLNNGKFYVGVCAFVRVQLKDGSYHEDVGYGVSEGLKSKALSLEKARKEAVTDGLKRALRSFGNALGNCILDKDYLRSLNKLPRQLPLEVDLTKAKRQDLEPSVEEARYNSCRPNMALGHPQLQQVTSPSRPSHAVIPADQDCSSRSLSSSAVESEATHQRKLRQKQLQQQFRERMEKQQVRVSTPSAEKSEAAPPAPPVTHSTPVTVSEPLLEKDFLAGVTQELIKTLEDNSEKWAVTPDAGDGVVKPSSRADPAQTSDTLALNNQMVTQNRTPHSVCHQKPQAKSGSWDLQTYSADQRTTGNWESHRKSQDMKKRKYDPS
notes: RAD52, human, wild type; no chain carries both; Probably the whole protein; also called pGBT9-HsRAD52; pGAD424-HsRAD52; source: yeast two-hybrid fusion, yeast strain Y187
B1: the “beta-galactosidase activity, fold above background” value in series [1] came out at 80 fold.

B2: HsRAD52_(1-212), the N-terminal 212 amino acids of HsRAD52 (domain or fragment, human, UniProt P43351 1-212, looked up)
chain: MSGTEEAILGGRDSHPAAGGGSVLCFGQCQYTAEEYQAIQKALRQRLGPEYISSRMAGGGQKVCYIEGHRVINLANEMFGYNGWAHSITQQNVDFVDLNNGKFYVGVCAFVRVQLKDGSYHEDVGYGVSEGLKSKALSLEKARKEAVTDGLKRALRSFGNALGNCILDKDYLRSLNKLPRQLPLEVDLTKAKRQDLEPSVEEARYNSCRPNM
notes: RAD52, human, N-terminal 212 amino acids (1-212); pET28b construct; also called pLAY855; source: E. coli Artic Express, purified (Ni-NTA, heparin, Superdex 200)
The term stoichiometry N denotes the number of molecules, sites or subunits per partner or assembly. As to B2, in series [2], the “stoichiometry N” value is 13 subunits and 14 subunits.

B3: HsRAD52-G59R_(1-212), the N-terminal 212 amino acids of HsRAD52-G59R (domain or fragment, human, UniProt P43351 1-212, looked up)
chain: B2 chain with G59R
notes: RAD52, human, N-terminal 212 amino acids (1-212) with the naturally occurring variant G59R; pET28b construct; also called pLAY971; source: E. coli Artic Express, purified (Ni-NTA, heparin, Superdex 200)
Turning to B3, the “stoichiometry N” value in series [2] is 13 subunits and 14 subunits.

B4: HsRAD52-S346X, His-tagged, bacterially expressed (domain or fragment, human, UniProt P43351 1-345, looked up)
chain: MSGTEEAILGGRDSHPAAGGGSVLCFGQCQYTAEEYQAIQKALRQRLGPEYISSRMAGGGQKVCYIEGHRVINLANEMFGYNGWAHSITQQNVDFVDLNNGKFYVGVCAFVRVQLKDGSYHEDVGYGVSEGLKSKALSLEKARKEAVTDGLKRALRSFGNALGNCILDKDYLRSLNKLPRQLPLEVDLTKAKRQDLEPSVEEARYNSCRPNMALGHPQLQQVTSPSRPSHAVIPADQDCSSRSLSSSAVESEATHQRKLRQKQLQQQFRERMEKQQVRVSTPSAEKSEAAPPAPPVTHSTPVTVSEPLLEKDFLAGVTQELIKTLEDNSEKWAVTPDAGDGVVKP
notes: RAD52, human, naturally occurring truncating variant S346X (stop codon in place of S346); pET28b construct; also called pLAY970; source: E. coli Artic Express, purified (Ni-NTA, heparin, Superdex 200)
On to B4, for which the “stoichiometry N” value in series [2] was ~6 subunits and ~8 subunits.
